# B1: GST-MKK3 (protein)
# chain: MSKPPAPNPTPPRNLDSRTFITIGDRMFEVEADDLVTISELGRGAYGVVEKVRHAQSGTIMAVKRIRATVNSQEQKRLLMDLDINMRTVDCFYTVTFYGALFREGDVWICMELMDTSLDKFYRKVLDKNMTIPEDILGEIAVSIVRALEHLHSKLSVIHRDVKPSNVLINKEGHVKMCDFGISGYLVDSVAKTMDAGCKPYMAPERINPELNQKGYNVKSDVWSLGITMIEMAILRFPYESWGTPFQQLKQVVEEPSPQLPADRFSPEFVDFTAQCLRKNPAERMSYLELMEHPFFTLHKTKKTDIAAFVKKILGEDS
# Experiments:
# [1] = molecular target: mutated GST-p38 MAP kinase (AGF), Q16539
# [2] = molecular target: GST-p38 MAP kinase (wild-type, TGY), Q16539
# GST-p38 MAP kinase (wild-type, TGY), Q16539, sequence (Q16539 whole entry): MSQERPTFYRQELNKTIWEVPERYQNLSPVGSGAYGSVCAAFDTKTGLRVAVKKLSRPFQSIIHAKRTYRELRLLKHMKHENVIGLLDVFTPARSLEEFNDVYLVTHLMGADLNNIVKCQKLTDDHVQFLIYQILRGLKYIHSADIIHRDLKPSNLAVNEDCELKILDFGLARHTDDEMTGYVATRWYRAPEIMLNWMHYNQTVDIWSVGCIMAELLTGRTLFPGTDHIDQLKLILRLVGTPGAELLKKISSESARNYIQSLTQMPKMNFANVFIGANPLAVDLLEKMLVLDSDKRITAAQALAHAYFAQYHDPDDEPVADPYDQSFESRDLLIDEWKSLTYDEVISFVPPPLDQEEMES
# GST-JNK1, P45983, sequence (P45983 other isoform, or with tags, fused parts or gaps): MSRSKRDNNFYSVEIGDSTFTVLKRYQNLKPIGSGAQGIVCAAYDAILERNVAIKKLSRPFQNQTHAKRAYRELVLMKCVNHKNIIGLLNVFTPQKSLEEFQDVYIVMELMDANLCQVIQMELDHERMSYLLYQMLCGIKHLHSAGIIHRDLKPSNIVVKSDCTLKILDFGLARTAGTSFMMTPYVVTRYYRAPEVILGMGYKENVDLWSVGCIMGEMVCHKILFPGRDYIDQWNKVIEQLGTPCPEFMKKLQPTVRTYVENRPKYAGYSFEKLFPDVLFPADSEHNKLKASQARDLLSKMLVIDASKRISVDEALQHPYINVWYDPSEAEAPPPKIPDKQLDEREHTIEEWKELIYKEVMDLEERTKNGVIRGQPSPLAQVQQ
# mutated GST-p38 MAP kinase (AGF), Q16539, sequence (Q16539 whole entry, looked up, change not shown): as the sequence (Q16539 whole entry) above
# GST-ERK2 [GST: P08515], sequence (P08515 whole entry, looked up): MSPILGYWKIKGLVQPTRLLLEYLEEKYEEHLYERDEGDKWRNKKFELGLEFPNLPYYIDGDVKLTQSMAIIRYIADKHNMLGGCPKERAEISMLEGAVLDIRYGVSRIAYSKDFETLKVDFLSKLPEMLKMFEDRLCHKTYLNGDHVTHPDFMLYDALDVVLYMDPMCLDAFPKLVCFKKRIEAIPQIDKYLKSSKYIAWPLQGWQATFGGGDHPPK
protein,measurement,setting,value
B1,"phosphorylation of the substrate protein (in vitro kinase assay, [γ-32P]ATP, SDS-PAGE, autoradiography)",GST-ERK2 [GST: P08515],"MKK3 phosphorylated p38 MAP kinase, but not JNK1 or ERK2"
same,"phosphorylation of the substrate protein (in vitro kinase assay, [γ-32P]ATP, SDS-PAGE, autoradiography)","GST-JNK1, P45983","MKK3 phosphorylated p38 MAP kinase, but not JNK1 or ERK2"
same,"phosphorylation of the substrate protein (in vitro kinase assay, SDS-PAGE, autoradiography)",[1],Only phosphorylation of wild-type p38 was observed
same,"phosphorylation of the substrate protein (in vitro kinase assay, SDS-PAGE, autoradiography)",[2],Only phosphorylation of wild-type p38 was observed
same,"phosphorylation of the substrate protein (in vitro kinase assay, [γ-32P]ATP, SDS-PAGE, autoradiography)",[2],"MKK3 phosphorylated p38 MAP kinase, but not JNK1 or ERK2"
